In PMC5991677, “3-methylcrotonyl Coenzyme A (CoA) carboxylase complex is involved in the Xanthomonas citri subsp. citri lifestyle during citrus infection” (PLoS ONE, 2018):

Assays:
[1] = tested on: CC(C)=CC(=O)SCCNC(=O)CCNC(=O)[C@H](O)C(C)(C)COP(=O)(O)OP(=O)(O)OC[C@H]1O[C@@H](n2cnc3c(N)ncnc32)[C@H](O)[C@@H]1OP(=O)(O)O; test: purified protein; conditions: co-substrates ATP and bicarbonate, Mg; 3-methylcrotonyl-CoA varied 1-1000 μM; enzyme complex 0.05 μM (Fig 4 legend says 0.5 μM)
[2] = target: His-AccD, β subunit of the 3-methylcrotonyl-CoA carboxylase (MCC) complex of Xanthomonas citri subsp. citri (XAC0264) (Xanthomonas citri subsp. citri) (UniProt Q8PJ30); test: SEC; Superdex S200, 500 μg of AccC, AccD or the complex (preincubated mixture of both) loaded; 50 mM potassium phosphate pH 7.6, 50 mM NaCl, 0.5 mM DTT; calibrated with mass standards; fractions of the complex analysed by SDS-PAGE

Substance | Km [1] [µM] | stoichiometry N [2]
MCC complex (His-AccC / His-AccD, α6β6) (Xanthomonas citri subsp. citri 306) | 71.4 | –
His-AccD, β subunit of the 3-methylcrotonyl-CoA carboxylase (MCC) complex of Xanthomonas citri subsp. citri (XAC0264) (from UniProt Q8PJ30 1-295) (natural protein) | – | 6
His-AccC, α subunit of the 3-methylcrotonyl-CoA carboxylase (MCC) complex of Xanthomonas citri subsp. citri (XAC0263) (from UniProt A0AAI8ER48 1-675) (natural protein) | – | 1
